Test results from article PMC3997499, “Resolving Hot Spots in the C-Terminal Dimerization Domain that Determine the Stability of the Molecular Chaperone Hsp90” (PLoS ONE, 2014).
Several values for one entry are separate records, joined by “and”; a condition that tells them apart may be missing. Equal entries are not always repeated.

Legend:
[1] = molecular target: the molecule itself; assay: SEC-MALS; Bio SEC-5 150 Å column, HPLC buffer without glycerol (10 mM MES, 200 mM KCl, 1 mM EDTA, pH 6), samples 2.4 mg/ml; dimer to monomers
[2] = molecular target: the molecule itself; assay: as above; remark: listed apart in the source
[3] = molecular target: the molecule itself; assay: SEC; Superdex SD200 10/300, 4°C, HPLC buffer (10 mM MES/KOH, 200 mM KCl, 1 mM EDTA, 1% glycerol) pH 6, 110 µL purified CTD, triplicates; apparent stoichiometry from calibration with globular protein standards

Protein | stoichiometry N [1] | fraction of species 1 (monomer mass) [2] | fraction of species 2 (dimer mass) [2] | stoichiometry N [3] | binding result [3]
C-terminal domain (CTD) of human heat shock protein of 90 kDa (hHsp90), wild type (domain or fragment, human Hsp90 alpha isoform (UniProt P07900), C-terminal domain, residues 563-732; synthetic codon-optimized DNA; Vector pTEV21-a; also called CTD wt; wt) not shown | 2 | 0 | 1 | 4 and 8 | 
hHsp90 CTD cold spot mutant CTD^S658A/Q682A (domain or fragment, human Hsp90 alpha isoform (UniProt P07900), C-terminal domain, residues 563-732, with S658A and Q682A; Same construct as m1 (pTEV21-a), made by site-directed mutagenesis; also called S658A/Q682A cold spot mutant) not shown |  |  |  |  | binds
hHsp90 CTD hot spot mutant I CTD^Y689A/I692A/L696A (domain or fragment, human Hsp90 alpha isoform (UniProt P07900), C-terminal domain, residues 563-732, with Y689A, I692A and L696A; Same construct as m1 (pTEV21-a), made by site-directed mutagenesis) not shown | 2 | 0.77 | 0.23 | 4 | 
hHsp90 CTD hot spot mutant II CTD^I688A/Y689A/I692A (domain or fragment, human Hsp90 alpha isoform (UniProt P07900), C-terminal domain, residues 563-732, with I688A, Y689A and I692A; Same construct as m1 (pTEV21-a), made by site-directed mutagenesis) not shown | 2 | 0.69 | 0.31 | 4 | 
